Results on one protein are retold here after ChEMBL document CHEMBL5244221, “Synthesis and structure-activity relationship studies of cruzain and rhodesain inhibitors” (Eur J Med Chem, 2018).

Substrate in data set [1]: CCCC[C@@H](C(=O)Nc1ccc2c(C)c(CC(=O)O)c(=O)oc2c1)n1cc([C@@](C)(NCc2ccc3ncsc3c2)C(C)C)nn1
The experiment in a line: (§1) Binding affinity to Trypanosoma cruzi Cruzain assessed as Kcat/Km.

Substrate in data set [2]: CCCC[C@@H](C(=O)Nc1ccc2c(C)c(CC(=O)O)c(=O)oc2c1)n1cc([C@@](C)(NCc2ccc3ncccc3c2)C(C)C)nn1
The description is as §1.

Substrate in data set [3]: CCCC[C@@H](C(=O)Nc1ccc2c(C)c(CC(=O)O)c(=O)oc2c1)n1cc([C@@](C)(NCc2ccccc2)C(C)C)nn1
The data set is described as §1.

Substrate in data set [4]: CCCC[C@@H](C(=O)Nc1ccc2c(C)c(CC(=O)O)c(=O)oc2c1)n1cc([C@@](C)(NCc2ccc(F)cc2)C(C)C)nn1
The data set is described as §1.

Substrate in data set [5]: CCCC[C@@H](C(=O)Nc1ccc2c(C)c(CC(=O)O)c(=O)oc2c1)n1cc([C@@](C)(NCc2ccc(OC)cc2)C(C)C)nn1
Described as §1.

B1: Cruzipain (Trypanosoma cruzi), P25779 (protein)
chain: MSGWARALLLAAVLVVMACLVPAATASLHAEETLTSQFAEFKQKHGRVYESAAEEAFRLSVFRENLFLARLHAAANPHATFGVTPFSDLTREEFRSRYHNGAAHFAAAQERARVPVKVEVVGAPAAVDWRARGAVTAVKDQGQCGSCWAFSAIGNVECQWFLAGHPLTNLSEQMLVSCDKTDSGCSGGLMNNAFEWIVQENNGAVYTEDSYPYASGEGISPPCTTSGHTVGATITGHVELPQDEAQIAAWLAVNGPVAVAVDASSWMTYTGGVMTSCVSEQLDHGVLLVGYNDSAAVPYWIIKNSWTTQWGEEGYIRIAKGSNQCLVKEEASSAVVGGPGPTPEPTTTTTTSAPGPSPSYFVQMSCTDAACIVGCENVTLPTGQCLLTTSGVSAIVTCGAETLTEEVFLTSTHCSGPSVRSSVPLNKCNRLLRGSVEFFCGSSSSGRLADVDRQRRHQPYHSRHRRL
For B1, the kcat/Km in data set [1] stood at 19; in data set [2] it was 19; in data set [3], 3.5; in data set [4], 4; in data set [5], 6.5.
